Data on one substance can be found in patent US20080234216A1.

The test addresses Truncated TGF-β type III receptor encoded by partial rat cDNA clone R3-OF (rat) (UniProt P26342). In words: total 125I-TGF-β binding per glass slide of COS cells transfected with the cDNA clone (calculated, data not shown).

Recombinant human TGF-β1, sequence (P01137 279-390 limits assumed): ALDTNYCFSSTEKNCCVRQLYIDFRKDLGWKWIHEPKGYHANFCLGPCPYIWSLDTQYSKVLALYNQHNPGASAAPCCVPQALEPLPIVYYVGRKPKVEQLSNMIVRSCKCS
Truncated TGF-β type III receptor encoded by partial rat cDNA clone R3-OF (rat), sequence (P26342 24-818 L164V limits assumed): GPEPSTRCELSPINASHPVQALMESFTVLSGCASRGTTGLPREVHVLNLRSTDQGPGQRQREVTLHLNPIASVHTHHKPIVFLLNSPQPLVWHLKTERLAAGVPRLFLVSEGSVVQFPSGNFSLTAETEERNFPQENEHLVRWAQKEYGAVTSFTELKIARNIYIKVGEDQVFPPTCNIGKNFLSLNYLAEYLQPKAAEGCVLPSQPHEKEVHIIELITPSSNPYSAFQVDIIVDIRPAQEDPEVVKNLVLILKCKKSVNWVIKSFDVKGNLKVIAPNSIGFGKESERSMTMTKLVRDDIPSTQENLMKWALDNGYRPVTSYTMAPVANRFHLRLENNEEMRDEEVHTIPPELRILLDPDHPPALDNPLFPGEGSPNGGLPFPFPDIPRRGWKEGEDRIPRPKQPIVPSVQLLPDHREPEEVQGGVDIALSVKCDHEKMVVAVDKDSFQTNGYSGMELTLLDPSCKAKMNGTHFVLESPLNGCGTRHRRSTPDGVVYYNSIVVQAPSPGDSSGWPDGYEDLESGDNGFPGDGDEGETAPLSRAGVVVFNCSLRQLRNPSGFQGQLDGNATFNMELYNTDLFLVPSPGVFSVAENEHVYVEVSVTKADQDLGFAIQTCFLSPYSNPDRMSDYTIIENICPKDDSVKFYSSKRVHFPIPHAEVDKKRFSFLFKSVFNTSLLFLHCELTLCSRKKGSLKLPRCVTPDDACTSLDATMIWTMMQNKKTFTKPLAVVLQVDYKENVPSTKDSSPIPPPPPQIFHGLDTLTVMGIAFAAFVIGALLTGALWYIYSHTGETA

Turning to “Recombinant human TGF-β1 (from UniProt P01137 279-390) (ligand)”, the fold total 125I-TGF-β binding over mock transfectants is 2 fold.
